These results are taken from the Human Domainome abundance scans (Beltran et al. 2025).

± gives the uncertainty stated by the source.

B1: Protein piccolo, residues 1058 to 1114; numbered along this chain, Q9Y6V0 (parent)
chain: TCPLCKTELNIGSKDPPNFNTCTECKNQVCNLCGFNPTPHLTEIQEWLCLNCQTQRA

In this series the parent is B1. Briefly: abundance fitness (aPCA) (normalised: wild type 0, dead -1); higher = more abundant; growth selection in yeast, the domain comes from the species named. The note with it: Homo sapiens.
TCPLCKTELNIGSKDPPNFNTCTECKMQVCNLCGFNPTPHLTEIQEWLCLNCQTQRA [N27M]: the abundance fitness is -0.088 ± 0.16.

Consider TCPLCKTELNIGSKDPPNFNTCTECKIQVCNLCGFNPTPHLTEIQEWLCLNCQTQRA [N27I], for which the abundance fitness worked out at 0.004 ± 0.2.

With TCPLCKTELNIGSKDPPNFNTCTECKCQVCNLCGFNPTPHLTEIQEWLCLNCQTQRA [N27C], the abundance fitness is 0.169 ± 0.18.

TCPLCKTELNIGSKDPPNFNTCTECKKQVCNLCGFNPTPHLTEIQEWLCLNCQTQRA [N27K]: the abundance fitness is -0.03 ± 0.15.

Take TCPLCKTELNIGSKDPPNFNTCTECKHQVCNLCGFNPTPHLTEIQEWLCLNCQTQRA [N27H]: the abundance fitness is -0.024 ± 0.19.

For TCPLCKTELNIGSKDPPNFNTCTECKWQVCNLCGFNPTPHLTEIQEWLCLNCQTQRA [N27W], the abundance fitness worked out at 0.174 ± 0.11.

For the variant TCPLCKTELNIGSKDPPNFNTCTECKPQVCNLCGFNPTPHLTEIQEWLCLNCQTQRA [N27P], the abundance fitness was -0.317 ± 0.14.

Regarding TCPLCKTELNIGSKDPPNFNTCTECKRQVCNLCGFNPTPHLTEIQEWLCLNCQTQRA [N27R], the abundance fitness is 0.106 ± 0.096.

As for TCPLCKTELNIGSKDPPNFNTCTECKLQVCNLCGFNPTPHLTEIQEWLCLNCQTQRA [N27L], the abundance fitness came out at 0.157 ± 0.088.

Turning to TCPLCKTELNIGSKDPPNFNTCTECKTQVCNLCGFNPTPHLTEIQEWLCLNCQTQRA [N27T], the abundance fitness is -0.082 ± 0.18.

For the variant TCPLCKTELNIGSKDPPNFNTCTECKYQVCNLCGFNPTPHLTEIQEWLCLNCQTQRA [N27Y], the abundance fitness was -0.452 ± 0.18.

For the variant TCPLCKTELNIGSKDPPNFNTCTECKVQVCNLCGFNPTPHLTEIQEWLCLNCQTQRA [N27V], the abundance fitness stood at 0.163 ± 0.09.

Regarding TCPLCKTELNIGSKDPPNFNTCTECKDQVCNLCGFNPTPHLTEIQEWLCLNCQTQRA [N27D], the abundance fitness is -0.094 ± 0.12.

For the variant TCPLCKTELNIGSKDPPNFNTCTECKFQVCNLCGFNPTPHLTEIQEWLCLNCQTQRA [N27F], the abundance fitness is -0.424 ± 0.19.

As for TCPLCKTELNIGSKDPPNFNTCTECKQQVCNLCGFNPTPHLTEIQEWLCLNCQTQRA [N27Q], the abundance fitness is 0.112 ± 0.15.

Turning to TCPLCKTELNIGSKDPPNFNTCTECKGQVCNLCGFNPTPHLTEIQEWLCLNCQTQRA [N27G], the abundance fitness was determined as 0.138 ± 0.096.

Regarding TCPLCKTELNIGSKDPPNFNTCTECKAQVCNLCGFNPTPHLTEIQEWLCLNCQTQRA [N27A], the abundance fitness came out at 0.151 ± 0.11.

For the variant TCPLCKTELNIGSKDPPNFNTCTECKSQVCNLCGFNPTPHLTEIQEWLCLNCQTQRA [N27S], the abundance fitness turned out to be 0.12 ± 0.12.

TCPLCKTELNIGSKDPPNFNTCTECTNQVCNLCGFNPTPHLTEIQEWLCLNCQTQRA [K26T]: the abundance fitness is 0.195 ± 0.14.

Consider TCPLCKTELNIGSKDPPNFNTCTECDNQVCNLCGFNPTPHLTEIQEWLCLNCQTQRA [K26D], for which the abundance fitness is 0.071 ± 0.13.

Regarding TCPLCKTELNIGSKDPPNFNTCTECSNQVCNLCGFNPTPHLTEIQEWLCLNCQTQRA [K26S], the abundance fitness was determined as 0.119 ± 0.1.

For TCPLCKTELNIGSKDPPNFNTCTECHNQVCNLCGFNPTPHLTEIQEWLCLNCQTQRA [K26H], the abundance fitness is -0.253 ± 0.29.

Turning to TCPLCKTELNIGSKDPPNFNTCTECVNQVCNLCGFNPTPHLTEIQEWLCLNCQTQRA [K26V], the abundance fitness was found to be 0.065 ± 0.097.

Turning to TCPLCKTELNIGSKDPPNFNTCTECLNQVCNLCGFNPTPHLTEIQEWLCLNCQTQRA [K26L], the abundance fitness came out at 0.103 ± 0.095.

For the variant TCPLCKTELNIGSKDPPNFNTCTECRNQVCNLCGFNPTPHLTEIQEWLCLNCQTQRA [K26R], the abundance fitness came to 0.072 ± 0.11.

TCPLCKTELNIGSKDPPNFNTCTECNNQVCNLCGFNPTPHLTEIQEWLCLNCQTQRA [K26N]: the abundance fitness is 0.09 ± 0.19.

Turning to TCPLCKTELNIGSKDPPNFNTCTECFNQVCNLCGFNPTPHLTEIQEWLCLNCQTQRA [K26F], the abundance fitness is -0.025 ± 0.12.

Take TCPLCKTELNIGSKDPPNFNTCTECCNQVCNLCGFNPTPHLTEIQEWLCLNCQTQRA [K26C]: the abundance fitness was -0.026 ± 0.16.

For the variant TCPLCKTELNIGSKDPPNFNTCTECINQVCNLCGFNPTPHLTEIQEWLCLNCQTQRA [K26I], the abundance fitness came out at 0.006 ± 0.18.

Take TCPLCKTELNIGSKDPPNFNTCTECWNQVCNLCGFNPTPHLTEIQEWLCLNCQTQRA [K26W]: the abundance fitness is -0.022 ± 0.11.

With TCPLCKTELNIGSKDPPNFNTCTECYNQVCNLCGFNPTPHLTEIQEWLCLNCQTQRA [K26Y], the abundance fitness is 0.148 ± 0.16.

Turning to TCPLCKTELNIGSKDPPNFNTCTECQNQVCNLCGFNPTPHLTEIQEWLCLNCQTQRA [K26Q], the abundance fitness turned out to be 0.04 ± 0.14.

For the variant TCPLCKTELNIGSKDPPNFNTCTECGNQVCNLCGFNPTPHLTEIQEWLCLNCQTQRA [K26G], the abundance fitness was determined as 0.139 ± 0.11.

Regarding TCPLCKTELNIGSKDPPNFNTCTECMNQVCNLCGFNPTPHLTEIQEWLCLNCQTQRA [K26M], the abundance fitness amounted to 0.335 ± 0.17.

On to TCPLCKTELNIGSKDPPNFNTCTECPNQVCNLCGFNPTPHLTEIQEWLCLNCQTQRA [K26P], for which the abundance fitness is -0.148 ± 0.14.

For TCPLCKTELNIGSKDPPNFNTCTECENQVCNLCGFNPTPHLTEIQEWLCLNCQTQRA [K26E], the abundance fitness was 0.045 ± 0.31.

On to TCPLCKTELNIGSKDPPNFNTCTEMKNQVCNLCGFNPTPHLTEIQEWLCLNCQTQRA [C25M], for which the abundance fitness was -0.742 ± 0.14.

Regarding TCPLCKTELNIGSKDPPNFNTCTEYKNQVCNLCGFNPTPHLTEIQEWLCLNCQTQRA [C25Y], the abundance fitness was -0.651 ± 0.12.

On to TCPLCKTELNIGSKDPPNFNTCTETKNQVCNLCGFNPTPHLTEIQEWLCLNCQTQRA [C25T], for which the abundance fitness was -0.606 ± 0.13.

Take TCPLCKTELNIGSKDPPNFNTCTEAKNQVCNLCGFNPTPHLTEIQEWLCLNCQTQRA [C25A]: the abundance fitness is -0.784 ± 0.1.

Regarding TCPLCKTELNIGSKDPPNFNTCTEDKNQVCNLCGFNPTPHLTEIQEWLCLNCQTQRA [C25D], the abundance fitness is -0.834 ± 0.18.

In the case of TCPLCKTELNIGSKDPPNFNTCTEIKNQVCNLCGFNPTPHLTEIQEWLCLNCQTQRA [C25I], the abundance fitness is -0.669 ± 0.14.

Take TCPLCKTELNIGSKDPPNFNTCTEKKNQVCNLCGFNPTPHLTEIQEWLCLNCQTQRA [C25K]: the abundance fitness is -0.808 ± 0.24.

For TCPLCKTELNIGSKDPPNFNTCTEVKNQVCNLCGFNPTPHLTEIQEWLCLNCQTQRA [C25V], the abundance fitness was -0.636 ± 0.084.

In the case of TCPLCKTELNIGSKDPPNFNTCTENKNQVCNLCGFNPTPHLTEIQEWLCLNCQTQRA [C25N], the abundance fitness was -0.66 ± 0.14.

For TCPLCKTELNIGSKDPPNFNTCTESKNQVCNLCGFNPTPHLTEIQEWLCLNCQTQRA [C25S], the abundance fitness was -0.671 ± 0.078.
